The target in experiment [1] is T1, PAK4 (Homo sapiens, UniProt O96013). In words: GST pull-down binding assay with 293T lysates expressing exogenous PAK4. The settings on record: GST-fusion protein on glutathione beads. On the set-up: expressed in transfected cells; host or cells: 293T. The procedure:
FIG. 1: (SEQ ID NOs 32-34 respectively in order of appearance) Direct binding of GEF-H1 to PAK4. Lysates were prepared from 293T cells over expressing (a) myc tagged PAK4 alleles or subdomains and incubated with GST, GST-GEF-H1 (787-921) and GST-Maguin-like bound to Glutathione beads (1,2,3,4 bead designation) or (b) GFP-GEF-H1 and incubated with PAK4 biotinylated peptides (291-355) and (276-324) linked to streptavidin beads. An equivalent amount of beads and excess lysates (500 ug) were used. Eluates of beads and total lysates were analysed by SDS-PAGE and immunoblotted with myc or GEF-H1 antiserum; (c) represents a PAK4 gene schematic outlining the regions of PAK4 used to identify the GEF-H1 interaction domain (GID). d, alignment of the GID defined by the minimal binding region of PAK4 with PAK5 and PAK6.
To confirm the in vitro interaction of GEF-H1S with PAK4, bacterially expressed GST-fusion proteins were generated with the identical sequences isolated by phage display, encoding either amino acids 763-921 of GEF-H1S or amino acids 385-555 from the Maguin-2-like protein. These fusion proteins were bound to glutathione beads and utilized in binding assays with 293T lysates expressing exogenous PAK4. […]
Target sequence in this assay (O96013 whole entry, the tested form may be a part): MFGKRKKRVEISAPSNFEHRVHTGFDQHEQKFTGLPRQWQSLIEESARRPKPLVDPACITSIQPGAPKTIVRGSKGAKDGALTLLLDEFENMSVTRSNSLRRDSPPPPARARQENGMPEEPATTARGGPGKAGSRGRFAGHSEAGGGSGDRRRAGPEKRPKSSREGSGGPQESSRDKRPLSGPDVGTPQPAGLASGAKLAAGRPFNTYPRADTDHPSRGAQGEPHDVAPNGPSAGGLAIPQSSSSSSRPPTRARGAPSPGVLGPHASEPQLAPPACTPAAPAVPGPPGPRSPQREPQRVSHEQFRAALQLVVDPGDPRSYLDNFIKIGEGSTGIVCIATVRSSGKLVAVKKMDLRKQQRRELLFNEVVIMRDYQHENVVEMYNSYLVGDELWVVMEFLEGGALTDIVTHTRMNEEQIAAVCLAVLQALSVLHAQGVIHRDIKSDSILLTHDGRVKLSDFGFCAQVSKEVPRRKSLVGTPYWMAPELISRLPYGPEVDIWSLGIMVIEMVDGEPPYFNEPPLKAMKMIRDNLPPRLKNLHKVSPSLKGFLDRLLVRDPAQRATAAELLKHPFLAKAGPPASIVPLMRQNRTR

Experiment [2] has as its target T1, PAK4. In words: In vitro kinase assay, phosphorylation of substrates by PAK4. It counts as biochemical. The settings on record: autoradiography. Set-up: Glutathione-s-transferase (GST) fused PAK4 (residues 291-591); GST (N); made in house. As for the experimental part:
Next examined, was whether GEF-H1 is a PAK4 substrate. In vitro kinase assays were performed using a GEF-H1 GST-fusion protein, a Maguin-2-like GST-fusion protein and GST control protein as substrates for phosphorylation by PAK4.
The cDNA encoding GEF-H1S obtained in the phage display screen was excised and subcloned into pGEX-4T expression vector to allow for recombinant production of protein for in vitro experiments. The GEF-H1S protein was then mixed with PAK4 kinase and incubated such that PAK4 phosphorylated the GEF-H1S. A portion of this kinase reaction was separated by SDS-PAGE and autoradiographed to visualize the extent of phosphorylation. […] SDS-PAGE is a universal protein separation and visualization technique that is described in Laemmli, Nature, 227(259):680-5, 1970.
From the phosphorylation experiments described above, two peptides of GEF-H1S were identified as being targets for PAK4-induced phosphorylation. The GEF-H1S target residues were identified by aligning the PAK4 activation loop peptide with the GEF-H1S polypeptide sequence amino acids 762 to 921.
The following phosphoisomers (phosphate-modified GEF-H1S peptides) were used in PAK4 kinase assays to determine which residues were specifically phosphorylated. Because certain residues were modified to comprise a phosphate moiety (the underlined residues below), they could not be phosphorylated by PAK4. […]
Target sequence in this assay (O96013 291-591): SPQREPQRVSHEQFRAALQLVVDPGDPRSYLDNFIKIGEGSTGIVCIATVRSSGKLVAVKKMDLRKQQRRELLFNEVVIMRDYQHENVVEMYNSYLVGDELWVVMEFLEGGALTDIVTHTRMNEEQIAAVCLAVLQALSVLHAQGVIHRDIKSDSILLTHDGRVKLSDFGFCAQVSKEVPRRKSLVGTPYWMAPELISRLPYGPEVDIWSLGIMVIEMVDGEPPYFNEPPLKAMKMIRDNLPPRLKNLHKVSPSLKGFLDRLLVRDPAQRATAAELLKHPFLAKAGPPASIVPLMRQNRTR

B1: GST-GEF-H1S (aa763-921): bacterially expressed GST-fusion protein of amino acids 763-921 of GEF-H1S (protein)
chain: LRESEQARALLEREAEEARRQLAALGQTEPLPAEAPWARRPVDPRRRSLPAGDALYLSFNPPQPSRGTDRLDLPVTTRSVHRNFEDRERQELGSPEERLQDSSDPDTGSEEEGSSRLSPPHSPRGETLAETWTRDFTRMQDIPEETESRDGEAVASES
modifications: left off: a dimerising Fc or GST
notes: bacterially expressed GST-fusion protein of amino acids 763-921 of GEF-H1S
Turning to B1, the “binding to full-length myc-tagged PAK4 protein and the kinase domain (amino acids 291-591)” value in experiment [1] was “able to bind strongly”. The “phosphorylation by PAK4 in vitro” value in experiment [2] is “showed phosphorylation”.

The record behind these values is US7439329B2, “GEF-H1b: biomarkers, complexes assays and therapeutic uses thereof” (Sugen, Inc., priority 2002, dated 2008).
